The values that follow come from the supplement of paper PMC12042874.

± gives the uncertainty stated by the source.

The series is described as follows: amyloid nucleation score (Sup35N fusion, yeast selection) (log enrichment); library NNK1; higher = more nucleation; inactive = no reads after selection. Summed up:
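The nucleation score is the DiMSum log enrichment of output over input reads, centred on the mode score of non-aggregating sequences. Only sequences with 100 or more input reads were scored, using Illumina sequencing of input and output plasmid inserts. Psi-negative yeast expressing Sup35N fused to peptides of 20 random codons were induced 24 hours with 100 μM copper sulfate and grown 7 days at 30°C on medium lacking adenine and uracil.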
On to YRCNT, for which the amyloid nucleation score is -0.244 ± 0.32.

For YRDFGGN, the amyloid nucleation score came to 0.076 ± 0.24.

The substance YRDTVGVYYRFIRGYWMCTW registered an amyloid nucleation score of -0.396 ± 0.42.

The substance YREEEILRVVNLTIFAGPGM displayed an amyloid nucleation score of -0.55 ± 0.39.

Consider YRFQTSISNCYSAERDWGT, for which the amyloid nucleation score came to 1.37 ± 0.42.

Consider YRLDFGWTMH, for which the amyloid nucleation score was found to be 0.3 ± 0.31.

Regarding YRSFAYEGSSRIGG, the amyloid nucleation score is -0.022 ± 0.38.

Substance YRSSGWRNTSSRAVLCCLDE returned an amyloid nucleation score of -0.356 ± 0.38.

YRVYRRLSV gave an amyloid nucleation score of 0.526 ± 0.45.

In turn, YSARLLSERIKWHFTLMMND gave an amyloid nucleation score of 0.41 ± 0.36.

YSESVCSLLPQYSPVHPLFT yielded an amyloid nucleation score of 0.891 ± 0.97.

Consider YSGHWLVHLPCHHQVR, for which the amyloid nucleation score is -0.028 ± 0.46.

In the case of YSKIRNKSRFRNLSASFQRC, the amyloid nucleation score entry was “inactive”.

Regarding YSLSNVEGYYTYYYRT, the amyloid nucleation score was -0.071 ± 0.28.

Regarding YSLYTNSHVPAWHSPSISHG, the amyloid nucleation score was -0.38 ± 0.82.

With YSMSRMIIKVKLQRHVMNYS, the amyloid nucleation score is -0.88 ± 0.73.

YSRISKRVSRKGQSRNCHSG yielded an amyloid nucleation score of -0.413 ± 0.52.

The substance YSRYYVNVVWFLGKLRS showed an amyloid nucleation score of 0.012 ± 0.37.

YSSGYLWFFIGTS gave an amyloid nucleation score of -1.38 ± 1.7.

YSSICGSKLLRSGGCRGVGH gave an amyloid nucleation score of -0.083 ± 0.49.

Substance YSTSSEVEVDWLSVSKFVSI had an amyloid nucleation score of 0.146 ± 0.27.

YSVQIMSKNITWVKVCPASK showed an amyloid nucleation score of 5.19 ± 0.071.

YSVSCSVF gave an amyloid nucleation score of -0.341 ± 0.31.

YTAACTRSNCYMCPVSAVGW showed an amyloid nucleation score of 0.214 ± 0.86.

Take YTFGWLLIKPHLRPAFKPHR: the amyloid nucleation score was -1.75 ± 2.7.

YTIGTRPTMLRLFGVLRWAG: the amyloid nucleation score came to 1.19 ± 0.43.

Substance YTMRGASRSTTDLLKIMIYM gave an amyloid nucleation score of -2.83 ± 2.4.

As for YTPGSGVLRAGTADQLMRNF, the amyloid nucleation score turned out to be 0.522 ± 0.63.

YTRMICGSMMGGVMREMRIM: the amyloid nucleation score was 0.739 ± 0.36.

The substance YTTVVQF showed an amyloid nucleation score of 0.064 ± 0.23.

In turn, YVCDKFYGNAQCF yielded an amyloid nucleation score of 0.644 ± 0.4.

In turn, YVCGGWCVRVVRQVGYVNL came in with an amyloid nucleation score of 0.421 ± 0.55.

The substance YVDDGMCSAICYSTVNNMSN came in with an amyloid nucleation score of 8.666 ± 0.047.

Regarding YVEFVFNIYSARFEWLLI, the amyloid nucleation score is -0.463 ± 0.75.

Regarding YVGIPQCGDLKRRPLA, the amyloid nucleation score was 0.116 ± 1.1.

For YVGQGPGSLLTTGWVRYSL, the amyloid nucleation score is -0.137 ± 0.6.

For the substance YVHQRGNNTSAMLAWVLPRH, the amyloid nucleation score was -0.766 ± 0.5.

For the substance YVSAVGLWVVLYYMMRMCAS, the amyloid nucleation score result is “inactive”.

Take YVSIYGQWVSSSCWTRRAYN: the amyloid nucleation score turned out to be 0.415 ± 0.32.

The substance YVSTIN showed an amyloid nucleation score of 0.629 ± 0.42.

Substance YVSYVCLDWM displayed an amyloid nucleation score of 6.7 ± 0.068.

YVTDVDF: the amyloid nucleation score result was “inactive”.

For the substance YVVIAEPGYSRDMISLMERC, the amyloid nucleation score was -1.16 ± 1.3.

In turn, YVVWDICKRVLLQWRYPPFS gave an amyloid nucleation score of -0.077 ± 1.7.

The substance YVWDFRKLLYPAGWMSESVR had an amyloid nucleation score of -0.346 ± 1.

In turn, YWDEIRCNSKNFDPCPFKAS had an amyloid nucleation score of 0.54 ± 0.19.

For YWGFGYPMFLNINMCLTSPE, the amyloid nucleation score turned out to be 6.21 ± 0.091.

Substance YWICRDTGSYDFCMMGMGKA showed an amyloid nucleation score of 0.335 ± 0.34.

Take YWKMRCM: the amyloid nucleation score worked out at 3.47 ± 0.19.

The substance YWLSSVHSQSRVAK showed an amyloid nucleation score of -0.298 ± 1.7.

As to YWNDVAS, the amyloid nucleation score was -0.931 ± 0.75.

On to YWNRRYIGTPLNM, for which the amyloid nucleation score is -1.73 ± 2.7.

For YWRNKGVVCGLCYDIVR, the amyloid nucleation score is -0.019 ± 0.97.

Substance YWRVVGITIWVVQDLIFGEG showed an amyloid nucleation score of -0.783 ± 1.

The substance YYGYVLFQGFSM registered an amyloid nucleation score of 1.82 ± 0.19.

As for YYLIMP, the amyloid nucleation score was found to be 0.322 ± 0.41.

Turning to YYMLGYLDSYLWSENDLWMC, the amyloid nucleation score was 0.642 ± 0.36.

For the substance YYNFLLIIFNCCKVMS, the amyloid nucleation score came out at 3.5 ± 0.11.

For YYNLTSGPFKGGCWQRYF, the amyloid nucleation score is -0.205 ± 0.32.
